Assay results taken from article PMC12152899, “Disulfide-mediated tetramerization of TRAP1 fosters its antioxidant and pro-neoplastic activities” (Redox Biology, 2025).

B1: recombinant human TRAP1 C501S (natural protein, UniProt Q12931 60-704, looked up)
chain: STQTAEDKEEPLHSIISSTESVQGSTSKHEFQAETKKLLDIVARSLYSEKEVFIRELISNASDALEKLRHKLVSDGQALPEMEIHLQTNAEKGTITIQDTGIGMTQEELVSNLGTIARSGSKAFLDALQNQAEASSKIIGQFGVGFYSAFMVADRVEVYSRSAAPGSLGYQWLSDGSGVFEIAEASGVRTGTKIIIHLKSDCKEFSSEARVRDVVTKYSNFVSFPLYLNGRRMNTLQAIWMMDPKDVREWQHEEFYRYVAQAHDKPRYTLHYKTDAPLNIRSIFYVPDMKPSMFDVSRELGSSVALYSRKVLIQTKATDILPKWLRFIRGVVDSEDIPLNLSRELLQESALIRKLRDVLQQRLIKFFIDQSKKDAEKYAKFFEDYGLFMREGIVTATEQEVKEDIAKLLRYESSALPSGQLTSLSEYASRMRAGTRNIYYLSAPNRHLAEHSPYYEAMKKKDTEVLFCFEQFDELTLLHLREFDKKKLISVETDIVVDHYKEEKFEDRSPAAECLSEKETEELMAWMRNVLGSRVTNVKVTLRLDTHPAMVTVLEMGAARHFLRMQQLAKTQEERAQLLQPTLEINPRHALIKKLNQLRASEPGLAQLLVDQIYENAMIAAGLVDDPRAMVGRLNELLVKALERH
notes: Cloned in pET-26b(+); same construct as m1 with the mutation; source: E. coli BL21(DE3), purified (Ni-NTA)
B2: recombinant human TRAP1 C573R (natural protein, UniProt Q12931 60-704, looked up)
chain: STQTAEDKEEPLHSIISSTESVQGSTSKHEFQAETKKLLDIVARSLYSEKEVFIRELISNASDALEKLRHKLVSDGQALPEMEIHLQTNAEKGTITIQDTGIGMTQEELVSNLGTIARSGSKAFLDALQNQAEASSKIIGQFGVGFYSAFMVADRVEVYSRSAAPGSLGYQWLSDGSGVFEIAEASGVRTGTKIIIHLKSDCKEFSSEARVRDVVTKYSNFVSFPLYLNGRRMNTLQAIWMMDPKDVREWQHEEFYRYVAQAHDKPRYTLHYKTDAPLNIRSIFYVPDMKPSMFDVSRELGSSVALYSRKVLIQTKATDILPKWLRFIRGVVDSEDIPLNLSRELLQESALIRKLRDVLQQRLIKFFIDQSKKDAEKYAKFFEDYGLFMREGIVTATEQEVKEDIAKLLRYESSALPSGQLTSLSEYASRMRAGTRNIYYLCAPNRHLAEHSPYYEAMKKKDTEVLFCFEQFDELTLLHLREFDKKKLISVETDIVVDHYKEEKFEDRSPAAERLSEKETEELMAWMRNVLGSRVTNVKVTLRLDTHPAMVTVLEMGAARHFLRMQQLAKTQEERAQLLQPTLEINPRHALIKKLNQLRASEPGLAQLLVDQIYENAMIAAGLVDDPRAMVGRLNELLVKALERH
notes: as for B1
B3: recombinant human TRAP1 C261S (natural protein, UniProt Q12931 60-704, looked up)
chain: STQTAEDKEEPLHSIISSTESVQGSTSKHEFQAETKKLLDIVARSLYSEKEVFIRELISNASDALEKLRHKLVSDGQALPEMEIHLQTNAEKGTITIQDTGIGMTQEELVSNLGTIARSGSKAFLDALQNQAEASSKIIGQFGVGFYSAFMVADRVEVYSRSAAPGSLGYQWLSDGSGVFEIAEASGVRTGTKIIIHLKSDSKEFSSEARVRDVVTKYSNFVSFPLYLNGRRMNTLQAIWMMDPKDVREWQHEEFYRYVAQAHDKPRYTLHYKTDAPLNIRSIFYVPDMKPSMFDVSRELGSSVALYSRKVLIQTKATDILPKWLRFIRGVVDSEDIPLNLSRELLQESALIRKLRDVLQQRLIKFFIDQSKKDAEKYAKFFEDYGLFMREGIVTATEQEVKEDIAKLLRYESSALPSGQLTSLSEYASRMRAGTRNIYYLCAPNRHLAEHSPYYEAMKKKDTEVLFCFEQFDELTLLHLREFDKKKLISVETDIVVDHYKEEKFEDRSPAAECLSEKETEELMAWMRNVLGSRVTNVKVTLRLDTHPAMVTVLEMGAARHFLRMQQLAKTQEERAQLLQPTLEINPRHALIKKLNQLRASEPGLAQLLVDQIYENAMIAAGLVDDPRAMVGRLNELLVKALERH
notes: as for B1
B4: recombinant human TRAP1 C501S/C527A double mutant (natural protein, UniProt Q12931 60-704, looked up)
chain: STQTAEDKEEPLHSIISSTESVQGSTSKHEFQAETKKLLDIVARSLYSEKEVFIRELISNASDALEKLRHKLVSDGQALPEMEIHLQTNAEKGTITIQDTGIGMTQEELVSNLGTIARSGSKAFLDALQNQAEASSKIIGQFGVGFYSAFMVADRVEVYSRSAAPGSLGYQWLSDGSGVFEIAEASGVRTGTKIIIHLKSDCKEFSSEARVRDVVTKYSNFVSFPLYLNGRRMNTLQAIWMMDPKDVREWQHEEFYRYVAQAHDKPRYTLHYKTDAPLNIRSIFYVPDMKPSMFDVSRELGSSVALYSRKVLIQTKATDILPKWLRFIRGVVDSEDIPLNLSRELLQESALIRKLRDVLQQRLIKFFIDQSKKDAEKYAKFFEDYGLFMREGIVTATEQEVKEDIAKLLRYESSALPSGQLTSLSEYASRMRAGTRNIYYLSAPNRHLAEHSPYYEAMKKKDTEVLFAFEQFDELTLLHLREFDKKKLISVETDIVVDHYKEEKFEDRSPAAECLSEKETEELMAWMRNVLGSRVTNVKVTLRLDTHPAMVTVLEMGAARHFLRMQQLAKTQEERAQLLQPTLEINPRHALIKKLNQLRASEPGLAQLLVDQIYENAMIAAGLVDDPRAMVGRLNELLVKALERH
notes: Cloned in pET-26b(+); same construct as m1 with the mutations; source: E. coli BL21(DE3), purified (Ni-NTA)
B5: recombinant human TRAP1 C527A (natural protein, UniProt Q12931 60-704, looked up)
chain: STQTAEDKEEPLHSIISSTESVQGSTSKHEFQAETKKLLDIVARSLYSEKEVFIRELISNASDALEKLRHKLVSDGQALPEMEIHLQTNAEKGTITIQDTGIGMTQEELVSNLGTIARSGSKAFLDALQNQAEASSKIIGQFGVGFYSAFMVADRVEVYSRSAAPGSLGYQWLSDGSGVFEIAEASGVRTGTKIIIHLKSDCKEFSSEARVRDVVTKYSNFVSFPLYLNGRRMNTLQAIWMMDPKDVREWQHEEFYRYVAQAHDKPRYTLHYKTDAPLNIRSIFYVPDMKPSMFDVSRELGSSVALYSRKVLIQTKATDILPKWLRFIRGVVDSEDIPLNLSRELLQESALIRKLRDVLQQRLIKFFIDQSKKDAEKYAKFFEDYGLFMREGIVTATEQEVKEDIAKLLRYESSALPSGQLTSLSEYASRMRAGTRNIYYLCAPNRHLAEHSPYYEAMKKKDTEVLFAFEQFDELTLLHLREFDKKKLISVETDIVVDHYKEEKFEDRSPAAECLSEKETEELMAWMRNVLGSRVTNVKVTLRLDTHPAMVTVLEMGAARHFLRMQQLAKTQEERAQLLQPTLEINPRHALIKKLNQLRASEPGLAQLLVDQIYENAMIAAGLVDDPRAMVGRLNELLVKALERH
notes: as for B1
B6: recombinant human TRAP1 wild type, lacking the mitochondrial import sequence (natural protein, UniProt Q12931 60-704, looked up)
chain: STQTAEDKEEPLHSIISSTESVQGSTSKHEFQAETKKLLDIVARSLYSEKEVFIRELISNASDALEKLRHKLVSDGQALPEMEIHLQTNAEKGTITIQDTGIGMTQEELVSNLGTIARSGSKAFLDALQNQAEASSKIIGQFGVGFYSAFMVADRVEVYSRSAAPGSLGYQWLSDGSGVFEIAEASGVRTGTKIIIHLKSDCKEFSSEARVRDVVTKYSNFVSFPLYLNGRRMNTLQAIWMMDPKDVREWQHEEFYRYVAQAHDKPRYTLHYKTDAPLNIRSIFYVPDMKPSMFDVSRELGSSVALYSRKVLIQTKATDILPKWLRFIRGVVDSEDIPLNLSRELLQESALIRKLRDVLQQRLIKFFIDQSKKDAEKYAKFFEDYGLFMREGIVTATEQEVKEDIAKLLRYESSALPSGQLTSLSEYASRMRAGTRNIYYLCAPNRHLAEHSPYYEAMKKKDTEVLFCFEQFDELTLLHLREFDKKKLISVETDIVVDHYKEEKFEDRSPAAECLSEKETEELMAWMRNVLGSRVTNVKVTLRLDTHPAMVTVLEMGAARHFLRMQQLAKTQEERAQLLQPTLEINPRHALIKKLNQLRASEPGLAQLLVDQIYENAMIAAGLVDDPRAMVGRLNELLVKALERH
notes: Cloned in pET-26b(+); Dimer by gel filtration with DTT; an additional tetramer peak after H2O2; also called WT TRAP1; TRAP1 WT; source: E. coli BL21(DE3), purified (Ni-NTA)

Biological target: the molecule itself
Test: non-reducing SDS-PAGE; purified recombinant TRAP1, DTT removed, 150 mM NaCl, 50 mM TRIS, pH 7.5, 37 °C, 100 μM H2O2 for 30 min (1 nM to 100 μM in Fig. 1B); disulfide-linked band above 170 kDa; Coomassie or stain-free

Binding result, binds:
B1, B2, B3, B4, B5

Biological target: the molecule itself
Test: SEC; Superdex 200 HR 10/30, 20 mM TRIS, 150 mM NaCl, pH 7; recombinant TRAP1 incubated with 100 μM H2O2; additional peak beside the dimer; dimers to tetramer

Stoichiometry N, 4:
B6
